The assay has as its target RhoA fused to LexA DNA-binding domain (yeast two hybrid) (human). The experiment in a line: yeast two hybrid, β-galactosidase activity.

B1: M2-9 (906-1004) fused to the VP16-activation domain (yeast two hybrid) (other)
chain: RGLLEEQYFELTQESKKAASRNRQEITDKDHTVSRLEEANSMLTKDIEILRRENEELTEKMKKAEEEYKLEKEEEISNLKAAFEKNINTERTLKTQAVN
As to B1, the binding result is on record as “no binding”.

B2: M2-6 (974-1024) fused to the VP16-activation domain (yeast two hybrid) (other)
chain: KLEKEEEISNLKAAFEKNINTERTLKTQAVNKLAEIMNRKDFKIDRKKANT
As to B2, the binding result is recorded as “no binding”.

Source of the values: US6013499, “Rho target protein kinase p160” (Kirin Beer Kabushiki Kaisha, dated 2000).
